Test results taken from patent US20210284747A1 (CAPELLA BIOSCIENCE, published 2021).

T1: Human LIGHT-32L, on II23 cells (human, UniProt O43557 1-240)
T1 construct: also called II23-LIGHT 32L
T1 chain: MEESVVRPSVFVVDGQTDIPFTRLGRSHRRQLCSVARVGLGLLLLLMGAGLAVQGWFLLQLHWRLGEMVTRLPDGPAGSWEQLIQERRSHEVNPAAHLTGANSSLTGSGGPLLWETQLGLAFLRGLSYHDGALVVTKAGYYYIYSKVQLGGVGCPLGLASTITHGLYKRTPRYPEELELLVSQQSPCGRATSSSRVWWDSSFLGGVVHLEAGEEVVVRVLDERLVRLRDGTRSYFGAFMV

T2: Recombinant human soluble LIGHT, amino acids 74-240 (R&D Systems 664-LI) (human, UniProt O43557 74-240)
T2 construct: range 74-240; Glycosylated trimer by native MS; also called 74-240 LIGHT
T2 chain: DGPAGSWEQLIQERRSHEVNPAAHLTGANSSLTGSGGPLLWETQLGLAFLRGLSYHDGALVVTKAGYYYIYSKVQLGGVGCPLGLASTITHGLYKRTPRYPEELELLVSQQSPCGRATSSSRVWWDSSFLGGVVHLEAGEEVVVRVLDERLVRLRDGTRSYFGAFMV


Legend:
[1] = target: T3, Human LIGHT stably expressed on EL4 cells (EL4-LIGHT) (human, UniProt O43557 1-240); assay: flow cytometry competition on EL4-LIGHT cells, co-incubation 40 min 4 C; blocked ligand DcR3-Fc-AF647 0.8 ug/ml; same IC50 as 0.020ug/ml, second unit printed
T3 construct: whole, on cells; also called membrane LIGHT
Procedure: (§1) EL4-LIGHT cells were co-incubated with Alexa Fluor 647 conjugated DcR3-Fc (DcR3-Fc-AF647; 0.8 μg/ml) and graded concentrations (31 μg/ml to 128 μg/ml) of anti-membrane LIGHT antibodies (3B04, 03D12 and 02B111) for 40 min at 4° C. A control, of a mAb that binds both soluble and membrane LIGHT was included (F19 from EP2292663). The samples were washed three times and flow cytometry analysis was performed. Specific mean fluorescence intensity (MFI) obtained from the binding of DcR3-Fc-AF647 to LIGHT on EL4 cells were used to determine the levels of competition binding.

[2] = target: LIGHT without residues 81-84, stably expressed on EL4 cells (EL4-NC-LIGHT); assay: cell-based or functional assay
[3] = target: T1, Human LIGHT-32L, on II23 cells; assay: flow cytometry on II23-LIGHT 32L cells, 4 ug mAb in 100 uL, goat anti-human Fc gamma-PE; signal as % of the commercial anti-LIGHT-PE
Procedure: The cells were suspended at 1×10⁷ cells/ml and 100 uL aliquots were placed into wells of a 96-well plate, the cells spun down and washed in FACS buffer at 1800 rpm for 2 min. The cells were blocked with 1:100 dilution of anti-CD16/CD32 (eBioscience, San Diego, USA) in FACS buffer for 20 min at room temperature and then washed 1× in FACS buffer at 1800 rpm for 2 min. The cells were then resuspended in 100 uL FACS buffer+4 ug anti-membrane LIGHT mAbs or anti-LIGHT-PE (eBioscience, lot: E01621-1632) for 30 min in the dark at room temperature, followed by washing 1× in FACS buffer at 1800 rpm for 2 min and then resuspended in 100 uL FACS buffer plus 1:100 goat anti-human Fcγ-PE secondary antibody or no secondary antibody at 4° C. in the dark for 30 min. The cells were again washed 1× in FACS buffer at 1800 rpm for 2 min and fixed in 200 uL 2% paraformaldehyde overnight at 4° C. and read on a flow cytometer.

[4] = target: T2, Recombinant human soluble LIGHT, amino …; assay: summary statement comparing soluble LIGHT binding with membrane LIGHT binding; soluble LIGHT preparation not specified
[5] = target: T3, Human LIGHT stably expressed on EL4 …; assay: flow cytometry competition on EL4-LIGHT cells, co-incubation 40 min 4 C; blocked ligand DcR3-Fc-AF647 0.8 ug/ml; same IC50 as 0.031ug/ml, second unit printed
Procedure: as §1

Row | IC50 [1] [nM] | IC50, inhibition of IL-8 secretion, HT-29 + EL4-NC-LIGHT cells [2] [nM] | binding result [3] | fold less specific to soluble LIGHT than membrane LIGHT [4] [fold] | IC50 [5] [nM] | Binder
1 | 0.138 | 0.05 | binds | > 100 |  | 3B04 chimeric IgG4 mAb (antibody, V domains shown, also called Parental 3B04) VH: QVQLQQPGAELVRPGASVTLSCKASGYTFTDYEMHWVKQTPVHGLEWIGEIDPETGDTAYSQKFKGKATLTADKSSSTAYMEFRSLTSEDSAVYYCSRETDYFFDYWGQGTTLTVSS VL: DIQMTQTPASLSASVGETVTITCGASENIYGALNWYQRKQGKSPQLLIYGATNLADGMSSRFSGSGSGRQYSLKISSLHPDDFATYYCQNVLTTPWTFGGGTKLEIK
2 |  | 0.32 | binds |  | 0.214 | 3D12 chimeric IgG4 mAb (antibody, V domains shown, Chimeric human IgG4 (S-to-P, L-to-E) with human CL, as m1; also called Parental 3D12; 03D12) VH: QVQLQQPGAELVRPGASVTLSCKASDYTFTDSEIHWVKQTPVHGLEWIGEIDPETGGTAYNQKFKGKATLTADKSSSTAYMELRSLTSEDSAVYYCSRETDYFFDYWGQGTTLTVSS VL: DIQMTQSPASLSASVGETVTITCGASENIYGALNWYQRKQGKSPQLLIYGATNLADGMSSRFSGSGSGRQYSLKISSLHPDDVATYYCQNVLSTPWTFGGGTKLEIK
